This is an account of results in US20050095616A1.

One data set concerns the target proteasome. Nature of the data set: cell-based or functional assay.
Data set [1] concerns IκB(S32A, S36A)-Bla mutant fusion protein.
Data set [2] concerns the target IκBα-beta-lactamase (IκBα-Bla) fusion protein, wild type (N-terminal IκBα and C-terminal Bla). Kind of data set: cell-based or functional assay.

Regarding ALLN (peptide), the IC50 for inhibition of the TNFα-stimulated decrease in reporter levels with proteasome turned out to be 5 µM.

For the substance IκB kinase (IKK), the “decrease in β-lactamase activity in response to TNFα treatment (10 ng/ml, 30 minutes)” value in data set [1] is “the mutation of serines-32 and -36 abolished the decrease in β-lactamase activity in response to TNFα treatment”.

As to IκB kinase (IKK) (enzyme), in data set [2], the decrease in β-lactamase activity of Jurkat IκB-Bla cells after 10 ng/ml TNFα is 2 fold.
